Substrate in this data set: CC(C)=CCC/C(C)=C/COP(=O)(O)OP(=O)(O)O
Description: purified protein. The conditions noted are these: Mn2+.

B1: (+)-limonene synthase [(+)-LS] (Citrus sinensis) (protein)
chain: RRSANYQPSIWDHDFLQSLNSNYTDETYKRRAEELKGKVKTAIKDVTEPLDQLELIDNLQRLGLAYHFEPEIRNILRNIHNHNKDYNWRKENLYATSLEFRLLRQHGYPVSQEVFSGFKDDKVGFICDDFKGILSLHEASYYSLEGESIMEEAWQFTSKHLKEMMITSNSKEEDVFVAEQAKRALELPLHWKAPMLEARWFIHVYEKREDKNHLLLELAKLEFNTLQAIYQEELKDISGWWKDTGLGEKLSFARNRLVASFLWSMGIAFEPQFAYCRRVLTISIALITVIDDIYDVYGTLDELEIFTDAVARWDINYALKHLPGYMKMCFLALYNFVNEFAYYVLKQQDFDMLLSIKHAWLGLIQAYLVEAKWYHSKYTPKLEEYLENGLVSITGPLIITISYLSGTNPIIKKELEFLESNPDIVHWSSKIFRLQDDLGTSSDEIQRGDVPKSIQCYMHETGASEEVAREHIKDMMRQMWKKVNAYTADKDSPLTRTTAEFLLNLVRMSHFMYLHGDGHGVQNQETIDVGFTLLFQPIPLEDKDMAFTASPGTKG
Broadly, the Km is the concentration of substrate that gives half-maximal velocity. With B1, the Michaelis-Menten constant (Km) amounted to 13.1 ± 0.6 µM.

Source of the values: paper PMC5642273.
